The nature of this series: background-corrected fluorescence of 3'-dye-labeled ssDNA relative to brightest sequence (3'-GCGCG) (fraction); higher = brighter dye fluorescence (less quenching). An outline of the steps: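 Each of 1024 permuted pentamers was synthesized as single-stranded DNA on glass slides by light-directed phosphoramidite chemistry, with a 3' Cy3 or Cy5 dye alongside. Arrays were scanned at 532 or 635 nm before and after overnight deprotection with ethylenediamine/ethanol. Values average 10 features per array across at least 3 syntheses. The fluorescence readout, with unlabeled-oligo background removed, is given relative to the brightest sequence.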

± gives the standard error.

The sequence “TTTTTGCATGATGCGCATGATTTTTTTTTTTTTTTTCATC [CTACT]” returned a background-corrected fluorescence (dye: Cy3 (3' terminal)) of 0.406 ± 0.0046 and a background-corrected fluorescence (dye: Cy5 (3' terminal)) of 0.305 ± 0.028.
The matching figures for “TTTTTTGCGCAGCATCATGATTTTTTTTTTTTTTTATTGC [CGTTA]”: 0.525 ± 0.024 and 0.402 ± 0.051.
“TTTTTGCAGCATGATGATCATTTTTTTTTTTTTTTTTCCG [GCCTT]”: the background-corrected fluorescence is, setting by setting: (dye: Cy3 (3' terminal)) 0.488 ± 0.011; (dye: Cy5 (3' terminal)) 0.366 ± 0.035.
Turning to “TTTTTTGCTGATGCTCATCATTTTTTTTTTTTTTTACAGG [GGACA]”, the background-corrected fluorescence is, setting by setting: (dye: Cy3 (3' terminal)) 0.646 ± 0.034; (dye: Cy5 (3' terminal)) 0.511 ± 0.053.
For “TTTTTTGCGCATCATCATGATTTTTTTTTTTTTTTATGGC [CGGTA]” the same measures were 0.545 ± 0.043 and 0.445 ± 0.026.
“TTTTTGCAGCATCATGATGATTTTTTTTTTTTTTTTTGCC [CCGTT]”: the background-corrected fluorescence is 0.41 ± 0.015 (dye: Cy3 (3' terminal)) and 0.322 ± 0.059 (dye: Cy5 (3' terminal)).
With “TTTTTGCATGCTGCTGCGCATTTTTTTTTTTTTTTTAAAT”, the background-corrected fluorescence amounted to 0.612 ± 0.027 (dye: Cy3 (3' terminal)) and 0.454 ± 0.038 (dye: Cy5 (3' terminal)).
“TTTTTGCATGATGCTGCTGCTTTTTTTTTTTTTTTTCAAA [AAACT]” came in with a background-corrected fluorescence (dye: Cy3 (3' terminal)) of 0.562 ± 0.024 and a background-corrected fluorescence (dye: Cy5 (3' terminal)) of 0.462 ± 0.051.
For “TTTTTGCATCATGCGCAGCATTTTTTTTTTTTTTTTGATT [TTAGT]” the same measures were 0.579 ± 0.035 and 0.419 ± 0.05.
“TTTTTGCATCATGCTGCTGCTTTTTTTTTTTTTTTTGAAA [AAAGT]”: the background-corrected fluorescence by setting is: (dye: Cy3 (3' terminal)) 0.603 ± 0.021; (dye: Cy5 (3' terminal)) 0.522 ± 0.041.
In the case of “TTTTTTGATGATGATGATCATTTTTTTTTTTTTTTCCCCG [GCCCC]”, the background-corrected fluorescence reads like this: (dye: Cy3 (3' terminal)) 0.471 ± 0.035; (dye: Cy5 (3' terminal)) 0.377 ± 0.026.
For “TTTTTTCAGCAGCAGCATGCTTTTTTTTTTTTTTTGTTTA [ATTTG]”, the background-corrected fluorescence was 0.521 ± 0.027 (dye: Cy3 (3' terminal)) and 0.403 ± 0.022 (dye: Cy5 (3' terminal)).
For “TTTTTTGAGCATCATGATGATTTTTTTTTTTTTTTCTGCC [CCGTC]” the same measures were 0.402 ± 0.027 and 0.312 ± 0.018.
For “TTTTTTGAGCAGCATGCTCATTTTTTTTTTTTTTTCTTAG [GATTC]” the same measures were 0.528 ± 0.014 and 0.395 ± 0.039.
Consider “TTTTTTGCGCATGCTGATCATTTTTTTTTTTTTTTATACG [GCATA]”, for which the background-corrected fluorescence came to 0.574 ± 0.022 (dye: Cy3 (3' terminal)) and 0.43 ± 0.029 (dye: Cy5 (3' terminal)).
For “TTTTTTGCTGAGCATCATGCTTTTTTTTTTTTTTTACTGA [AGTCA]” the same measures were 0.654 ± 0.04 and 0.475 ± 0.024.
The matching figures for “TTTTTTGCGCAGCATCAGCATTTTTTTTTTTTTTTATTGT [TGTTA]”: 0.589 ± 0.027 and 0.486 ± 0.037.
The matching figures for “TTTTTTGATGCTGCTGCTGCTTTTTTTTTTTTTTTCAAAA [AAAAC]”: 0.569 ± 0.015 and 0.47 ± 0.03.
For “TTTTTTGATGAGCAGCAGCATTTTTTTTTTTTTTTCCTTT”, the background-corrected fluorescence (dye: Cy3 (3' terminal)) was found to be 0.492 ± 0.016 and the background-corrected fluorescence (dye: Cy5 (3' terminal)) was 0.347 ± 0.023.
The matching figures for “TTTTTTCATCATGCTCATCATTTTTTTTTTTTTTTGGAGG”: 0.689 ± 0.0083 and 0.534 ± 0.029.
For “TTTTTTGCGCATGATCAGCATTTTTTTTTTTTTTTATCGT [TGCTA]” the same measures were 0.605 ± 0.011 and 0.449 ± 0.027.
The matching figures for “TTTTTTGATGCTGCGCAGCATTTTTTTTTTTTTTTCAATT [TTAAC]”: 0.538 ± 0.027 and 0.385 ± 0.029.
Regarding “TTTTTTGCTGCGCATCATGCTTTTTTTTTTTTTTTAATGA [AGTAA]”, the background-corrected fluorescence was 0.634 ± 0.032 (dye: Cy3 (3' terminal)) and 0.524 ± 0.03 (dye: Cy5 (3' terminal)).
For “TTTTTTGCTGCTGCTGCTGATTTTTTTTTTTTTTTAAAAC [CAAAA]” the same measures were 0.461 ± 0.048 and 0.321 ± 0.019.
The matching figures for “TTTTTTGCTCATGCTCAGCATTTTTTTTTTTTTTTAGAGT [TGAGA]”: 0.598 ± 0.017 and 0.503 ± 0.029.
The matching figures for “TTTTTTGCTGCTGATGATCATTTTTTTTTTTTTTTAACCG [GCCAA]”: 0.545 ± 0.036 and 0.42 ± 0.035.
On to “TTTTTTGATCATCATGATCATTTTTTTTTTTTTTTCGGCG [GCGGC]”, for which the background-corrected fluorescence is 0.704 ± 0.027 (dye: Cy3 (3' terminal)) and 0.611 ± 0.053 (dye: Cy5 (3' terminal)).
The matching figures for “TTTTTTCAGCATGATCAGCATTTTTTTTTTTTTTTGTCGT [TGCTG]”: 0.581 ± 0.021 and 0.451 ± 0.032.
For “TTTTTTCATCATCATGCTCATTTTTTTTTTTTTTTGGGAG [GAGGG]” the same measures were 0.614 ± 0.037 and 0.478 ± 0.026.
